Assays:
[1] = target: fl-16E7 (human papillomavirus type 16) (UniProt P03129); test: fluorescence polarisation; direct: 1.5-fold dilution series of MBP-E6 (or MBP) against fixed fl-E7 (350 nM HPV16, 200 nM HPV31) or 350 nM fl-16E7CR1/2; 20 mM Hepes pH 7.5, 200 mM NaCl, 1 mM TCEP, 0.005% Tween-20; one-site-specific binding fit
[2] = target: fl-16E7CR1/2 (aa 1–44) (human papillomavirus type 16) (UniProt P03129); test: as above
[3] = target: fl-16E7 (human papillomavirus type 16) (UniProt P03129); test: AUC; sedimentation equilibrium, 12,000 or 18,000 rpm, 20 °C, 20 mM Hepes pH 7.5, 200 mM NaCl, 1 mM TCEP; 100 μM MBP-16E6_4C4S-LxxLL, 100 μM fl-16E7, 100 μM complex (1:1 molar mixture)
[4] = target: fl-16E7 (human papillomavirus type 16) (UniProt P03129); test: AUC; sedimentation velocity, 40,000 rpm, 20 °C, 20 mM Hepes pH 7.5, 200 mM NaCl, 1 mM TCEP; fl-16E7 followed at 495 nm; 1:1 molar mixture and titration of MBP-16E6_4C4S-LxxLL (0-150 μM) against 100 μM fl-16E7
[5] = target: fl-31E7 (human papillomavirus type 31) (UniProt P17387); test: fluorescence polarisation; direct: 1.5-fold dilution series of MBP-E6 (or MBP) against fixed fl-E7 (350 nM HPV16, 200 nM HPV31) or 350 nM fl-16E7CR1/2; 20 mM Hepes pH 7.5, 200 mM NaCl, 1 mM TCEP, 0.005% Tween-20; one-site-specific binding fit
[6] = target: MBP-16E6_4C4S (human papillomavirus type 16); test: fluorescence polarisation; competition: nonlabeled 16E7CR1/2 against the fl-16E7/MBP-16E6_4C4S complex (Fig. S5)
[7] = target: MBP-16E6_4C4S (human papillomavirus type 16); test: fluorescence polarisation; competition: nonlabeled 16E7CR1/2 (aa 1-44) against the complex of 200 μM MBP-16E6_4C4S and 350 nM fl-16E7CR1/2 (60% saturation)
[8] = target: MBP-16E6_4C4S (human papillomavirus type 16); test: fluorescence polarisation; competition: unlabeled GGG-E7 dimer (two-fold dilutions, from 200 μM HPV16, from 150 μM HPV31) against the preformed complex of fl-E7 with 50 μM MBP-16E6_4C4S or 70 μM MBP-31E6_2C2S-LxxLL (60-80% saturation); FP assay buffer; one-site-specific binding fit
EYFP-38E7 = target: T1, EYFP-38E7 (human papillomavirus type 38, UniProt Q80908 1-100); test: FRET or BRET; flow cytometry-based FRET (FACS-FRET) in C33A cells coexpressing mTagBFP2-E6 and EYFP-E7 of the same HPV type; at least 10% FRET and at least 500 FRET-positive cells count as an interaction; three biological replicates; conditions: partners not purified
T1 construct: Cloned in pEYFP-C1; SG linker between EYFP and E7; also called EYFP-E7 (HPV38); HPV 38E7; source: C33A, transfected, in cells; not shown: EYFP, N-terminal, kept
T1 sequence: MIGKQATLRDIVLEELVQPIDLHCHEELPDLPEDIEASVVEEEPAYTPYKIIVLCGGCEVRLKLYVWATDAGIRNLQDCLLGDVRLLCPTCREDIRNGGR

[9] = target: MBP-31E6_2C2S-LxxLL (human papillomavirus type 31 | not stated) (UniProt P17386); test: fluorescence polarisation; competition: unlabeled GGG-E7 dimer (two-fold dilutions, from 200 μM HPV16, from 150 μM HPV31) against the preformed complex of fl-E7 with 50 μM MBP-16E6_4C4S or 70 μM MBP-31E6_2C2S-LxxLL (60-80% saturation); FP assay buffer; one-site-specific binding fit
EYFP-31E7 = target: T2, EYFP-31E7 (human papillomavirus type 31, UniProt P17387 1-98); test: FRET or BRET; flow cytometry-based FRET (FACS-FRET) in C33A cells coexpressing mTagBFP2-E6 and EYFP-E7 of the same HPV type; at least 10% FRET and at least 500 FRET-positive cells count as an interaction; three biological replicates; conditions: partners not purified
T2 construct: Cloned in pEYFP-C1; SG linker between EYFP and E7; also called EYFP-E7 (HPV31); HPV 31E7; source: C33A, transfected, in cells; not shown: EYFP, N-terminal, kept
T2 sequence: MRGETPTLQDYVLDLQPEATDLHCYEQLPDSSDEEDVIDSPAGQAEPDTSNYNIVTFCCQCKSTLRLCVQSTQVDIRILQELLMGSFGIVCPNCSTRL

EYFP-16E7 = target: T3, EYFP-16E7 (human papillomavirus type 16, UniProt P03129 1-98); test: as above; conditions: partners not purified
T3 construct: Cloned in pEYFP-C1; SG linker between EYFP and E7; also called EYFP-E7 (HPV16); HPV 16E7; source: C33A, transfected, in cells; not shown: EYFP, N-terminal, kept
T3 sequence (looked up): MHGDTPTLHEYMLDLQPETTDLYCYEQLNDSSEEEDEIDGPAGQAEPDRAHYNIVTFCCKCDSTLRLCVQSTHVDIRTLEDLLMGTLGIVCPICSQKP

Molecule: MBP-16E6_4C4S (natural protein)
- Kd [1]: 3 µM
- Kd [2]: 101 µM

Molecule: MBP-16E6_4C4S-LxxLL
- stoichiometry N (E6 per E7 (2:2 complex)) [3]: 1
- percent of fl-16E7 in complex [4]: 89%
- Kd [1]: 46.4 µM

Molecule: MBP-31E6_2C2S-LxxLL (from UniProt P17386 1-149)
- Kd [5]: 59.4 µM

Molecule: fl-16E7 (from UniProt P03129 1-98) (natural protein)
- stoichiometry N [3]: 2

Molecule: nonlabeled 16E7CR1/2 (aa 1–44) (from UniProt P03129 1-44) (peptide)
- Kd [6]: 288 µM
- Kd [7]: 128 µM

Molecule: unlabeled GGG-16E7 dimer (from UniProt P03129 1-98) (natural protein)
- Kd [8]: 61.9 µM

B1: mTagBFP2-38E6 (natural protein)
chain: MELPKPQTVQQLSDKLTVPVEDLLLPCRFCNSFLTYIELREFDYKNLQLIWTQEDFVFACCSSCAYASAQYECQQFYELTVFGREIEQVEQQTIGLIVIRCQYCLKCLDLIEKLDICCSHQAFHKVRGNWKGRCRHCKAIE
notes: Cloned in pmTagBFP-C1; SG linker between the fluorescent protein and the viral protein; also called mTagBFP2-E6 (HPV38); HPV 38E6; source: C33A, transfected, in cells; not shown: mTagBFP2, N-terminal, kept
- percent FRET (EYFP-38E7): 17.9%

B2: unlabeled GGG-31E7 dimer (natural protein)
chain: GGGMRGETPTLQDYVLDLQPEATDLHCYEQLPDSSDEEDVIDSPAGQAEPDTSNYNIVTFCCQCKSTLRLCVQSTQVDIRILQELLMGSFGIVCPNCSTRL
- Kd [9]: 54.2 µM

B3: mTagBFP2-31E6 (natural protein)
chain: MFKNPAERPRKLHELSSALEIPYDELRLNCVYCKGQLTETEVLDFAFTDLTIVYRDDTPHGVCTKCLRFYSKVSEFRWYRYSVYGTTLEKLTNKGICDLLIRCITCQRPLCPEEKQRHLDKKKRFHNIGGRWTGRCIACWRRPRTETQV
notes: Cloned in pmTagBFP-C1; SG linker between the fluorescent protein and the viral protein; also called mTagBFP2-E6 (HPV31); HPV 31E6; source: C33A, transfected, in cells; not shown: mTagBFP2, N-terminal, kept
- percent FRET (EYFP-31E7): 16.3%

B4: mTagBFP2-16E6 (natural protein, human papillomavirus type 16, UniProt P03126 1-158, looked up)
chain: MHQKRTAMFQDPQERPRKLPQLCTELQTTIHDIILECVYCKQQLLRREVYDFAFRDLCIVYRDGNPYAVCDKCLKFYSKISEYRHYCYSLYGTTLEQQYNKPLCDLLIRCINCQKPLCPEEKQRHLDKKQRFHNIRGRWTGRCMSCCRSSRTRRETQL
notes: Cloned in pmTagBFP-C1; SG linker between the fluorescent protein and the viral protein; also called mTagBFP2-E6 (HPV16); HPV 16E6; source: C33A, transfected, in cells; not shown: mTagBFP2, N-terminal, kept
- percent FRET (EYFP-16E7): 13%

Reference: PMC10372912, “Evidence for direct interaction between the oncogenic proteins E6 and E7 of high-risk human papillomavirus (HPV)” (The Journal of Biological Chemistry, 2023)
